Experimental data as given in patent US20070185028A1, “Compositions and methods for treatment of protein misfolding and protein aggregation diseases” (priority 2004, published 2007).

Tests used:
human γD crystallin = molecular target: T1, human γD crystallin (Homo sapiens, UniProt P07320); assay: αB crystallin protein pin array with γD crystallin; type: binding; details: unheated γD crystallin; similar maxima pre-heated 45° C.
T1 construct: made in house
T1 sequence (P07320 1-174): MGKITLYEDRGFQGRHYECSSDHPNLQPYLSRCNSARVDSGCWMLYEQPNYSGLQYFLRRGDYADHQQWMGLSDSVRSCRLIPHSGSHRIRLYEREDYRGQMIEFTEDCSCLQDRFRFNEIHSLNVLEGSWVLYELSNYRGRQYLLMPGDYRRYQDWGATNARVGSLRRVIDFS
Excerpt: (§1) Synthesis of Pins, binding and detection of peptides binding to ligand proteins. The αB crystallin protein pin array was used to measure the interaction between peptides and chaperone target proteins including bovine βH crystallin, human γD crystallin, equine alcohol dehydrogenase (ADH) and porcine citrate synthase (CS) as described (FIG. 12). Ghosh and Clark, Protein Sci 14: 684-95, 2005.
(§2) Refer to the methods section for detailed protocols. The absorbance corresponding to the blue coloration in each well was measured at λ=450 nm and plotted against the amino acid sequence of the corresponding peptide in that well (FIGS. 13 and 14). Wells containing peptides that have strong interactions with target proteins are dark blue and wells containing peptides that have weak or no interaction with target proteins are light blue or clear.
(§3) The purity of the target proteins used in the pin array assays, bovine βH crystallin, human γD crystallin, equine alcohol dehydrogenase (ADH) and porcine citrate synthase (CS) were determined to be >90% by SDS-PAGE. In addition, primary antibodies for each target protein were specific to that target protein and consequently contaminating proteins that may bind to the peptides will not be detected. Eighty-four sequential and overlapping peptide fragments corresponding to residues 1-175 of human αB crystallin were synthesized employing a simultaneous peptide synthesis strategy developed by Geysen, called Multipin Peptide Synthesis (Mimotopes, San Diego, Calif.). Geysen, Southeast Asian J Trop Med Public Health 21: 523-33, 1990; Chin et al., J Org Chem 62: 538-539, 1997. Peptides were immobilized on derivatized polyethylene pins arranged in a microtiter ELISA plate format. Each peptide was eight amino acids in length and consecutive peptides were offset by two amino acids. All peptides were bound covalently to the surface of the plastic pins. The first peptide was 1MDIAIHHP8 and the last peptide was 168PAVTAAPK175 for human αB crystallin.
(§4) Ghosh and Clark, Protein Sci 14: 684-95, 2005. […] The intensity of the blue color in the wells was measured at 450 nm using an ELISA plate-reader (BioTek, Winooski, Vt.). The intensity of the blue color (plotted on the X-axis) was a measure of the interaction between αB crystallin peptides (plotted on the Y-axis) and target proteins. To measure the effect of temperature on the interactions between interactive peptides and the target proteins, the target proteins were heated in a water-bath at 45° C. for fifteen minutes prior to use. Pin arrays are unable to differentiate between monomers, dimers or oligomers of target proteins that exist in solution. Instead, pin arrays are very sensitive detectors of interactions between individual peptides and the entire population (monomers, dimers or oligomers) of specific target proteins that may exist in solution under specific conditions. Each target protein was assayed two to five times. A single pin array was used for all experiments and no change in interactions was observed after more than thirty repetitions. The last three peptides of the protein pin array, 163REEKPAVT170, 165EKPAVTAA172, 167PAVTAAPK174, correspond to the epitope (163REEKPAVTAAPKK175) recognized by the primary antibody for human αB crystallin. A positive reaction is observed for these three peptides in the absence of human αB crystallin as the ligand due to direct binding of the anti-human αB crystallin antibody to these three peptides. The loss of efficiency for the pin array was measured using this assay. The loss of efficiency for the pin array was determined to be <5% by after more than 30 assays.
When βH crystallin was replaced with γD crystallin, a native protein constituent of lens cytoplasm from the same gene family as the β crystallins, as the ligand in the pin array, twelve interactive sequences were identified (FIG. 14: striped bars). […]

[1] = as provided by manufacturer (Mimotopes); cited from earlier work
beta amyloid = beta amyloid (Homo sapiens, UniProt P05067); assay: αB crystallin protein pin array, binding of beta amyloid; details: immobilized 8-mer peptide; absorption at 450 nm
Excerpt: αB Crystallin peptides that bind the target protein beta-amyloid were identified by screening an αB crystallin protein pin array, which provides a systematic method for evaluating interactions between peptides corresponding to residues 1-175 of human αB crystallin and selected target proteins in a parallel and simultaneous manner.
Peptides were synthesized on derivatized polyethylene pins arranged in a microtiter plate format. Each peptide was 8 amino acids in length and consecutive peptides were offset by 2 amino acids. All peptides were covalently bonded to the surface plastic pins. The first immobilized peptide was 1MDIAIHHP8 and the last peptide was 168PAVTAAPK175 for the human αB crystallin.
After synthesis, the pins were pre-coated at room temperature with 2% Bovine Serum Albumin (BSA), 0.1% Tween-20 and 0.1% Sodium azide in 10 mM phosphate buffered saline pH 7.2 (PBS) for 1 hr, and washed three times for 10 mins each with 10 mM PBS. To screen for binding to the peptides, fixed concentrations of the target protein beta amyloid was dissolved in 10 mM PBS, containing 0.05% Tween-20, added to each well and incubated for 1 hr at room temperature. The pin array was washed three times for 10 mins each with 10 mM PBS, containing 0.05% Tween-20. Monoclonal or polyclonal primary antibodies for the target protein beta amyloid was diluted into PBS buffer, added to each well and incubated for 1 hr at room temperature. Subsequently, the pin array was washed three times for 10 mins each with 10 mM PBS containing 0.05% Tween-20. Anti-rabbit horse-radish peroxidase conjugate secondary antibodies was diluted into PBS buffer, added to each well and incubated for 1 hr at room temperature. The pin array was washed three times for 10 mins each with 10 mM PBS containing 0.05% Tween-20. A chromogenic substrate of horse-radish peroxidase 3,3′,5,5′-Tetramethylbenzidine (TMB) (Pharmingen, San Diego, Calif.) which is colorless was added, and the reaction was carried out for 45 min.
The reaction was stopped by adding 6N sulfuric acid, which changes the color from blue to yellow. The absorption at 450 nm was measured by an ELISA reader (BioTek, Winooski, Vt.).
The pin array was regenerated by sonication in a water bath (VWR Aquasonic, West Chester, Pa.) with 100 mM PBS, containing 1% Sodium dodecyl sulfate (SDS) and 0.1% 2-Mercaptoethanol@60° C. for 10 mins. Next, the pin array was rinsed three times in deionized water, preheated to 60° C. for 30 secs each time, and shaken in water preheated at 60° C. for 30 min. The pin array was then washed with methanol at 60° C. for 15 secs and air-dried and stored @−20° C. for future use. Each target protein was assayed 2-5 times against the human αB crystallin protein pin array peptides to verify the reproducibility of the results. Peptides numbered 5, 7, 8, 9, 13, 19, 22, 23, 24, 27, 35, 38, 45, 51, 52, 56, 57, 61, 66, 71, 72, and 79 in Table 2 reproducibly tested positive in the protein pin assay.

[2] = molecular target: T2, equine alcohol dehydrogenase (ADH) (Equus caballus, UniProt P00327); assay: αB crystallin protein pin array with alcohol dehydrogenase; type: binding; details: ADH as ligand in the pin array
T2 construct: purchased Sigma-Aldrich, MO 05646
T2 sequence (P00327 whole entry): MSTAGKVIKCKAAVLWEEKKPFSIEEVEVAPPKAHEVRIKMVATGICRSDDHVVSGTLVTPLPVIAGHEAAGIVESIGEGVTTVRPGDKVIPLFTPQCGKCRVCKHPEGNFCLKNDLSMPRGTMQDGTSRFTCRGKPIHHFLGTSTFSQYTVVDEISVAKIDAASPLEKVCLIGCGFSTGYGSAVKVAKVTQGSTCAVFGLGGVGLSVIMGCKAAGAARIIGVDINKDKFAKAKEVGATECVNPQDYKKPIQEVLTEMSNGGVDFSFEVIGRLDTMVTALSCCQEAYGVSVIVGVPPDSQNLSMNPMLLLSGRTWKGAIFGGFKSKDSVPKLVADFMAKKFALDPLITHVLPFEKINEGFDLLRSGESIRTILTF
Excerpt: as §1, §2, §3, §4
The pattern of absorbance at k=450 nm when αB crystallin peptides were assayed with unheated and pre-heated ADH was similar to the absorbance pattern obtained with unheated and pre-heated βH/γD crystallin (FIG. 17). […]

[3] = molecular target: T3, porcine citrate synthase (CS) (Sus scrofa, UniProt P00889); assay: αB crystallin protein pin array with citrate synthase; type: binding; details: CS as target protein in the pin array
T3 construct: purchased Roche Diagnostics, IN 103 381
T3 sequence (P00889 28-464): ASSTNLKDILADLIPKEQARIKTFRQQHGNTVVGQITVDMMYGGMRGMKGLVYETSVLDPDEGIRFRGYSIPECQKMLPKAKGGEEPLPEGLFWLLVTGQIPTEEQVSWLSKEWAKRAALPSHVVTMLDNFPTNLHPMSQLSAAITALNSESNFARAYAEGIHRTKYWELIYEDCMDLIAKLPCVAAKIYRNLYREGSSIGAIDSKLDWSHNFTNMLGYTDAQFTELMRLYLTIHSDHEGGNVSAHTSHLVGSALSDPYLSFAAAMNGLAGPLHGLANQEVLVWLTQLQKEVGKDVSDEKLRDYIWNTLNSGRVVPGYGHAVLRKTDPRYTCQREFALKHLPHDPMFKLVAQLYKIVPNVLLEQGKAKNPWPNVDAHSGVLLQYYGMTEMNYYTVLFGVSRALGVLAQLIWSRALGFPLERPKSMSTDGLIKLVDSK
Excerpt: as §1, §2, §3, §4
The pattern of absorbance at λ=450 nm when αB crystallin peptides were assayed with unheated and pre-heated CS was similar to the absorbance pattern obtained with unheated and pre-heated βH/γD crystallin and ADH (FIG. 18). […]

bovine βH crystallin = assay: αB crystallin protein pin array with βH crystallin; type: binding; details: unheated βH crystallin, 23° C.; similar maxima pre-heated 45° C.
Excerpt: as §1, §2, §3, §4
Protein pin arrays enabled the identification of interactive sequences necessary for the chaperone activity of human αB crystallin. Interactions between immobilized 8-mer human αB crystallin peptides and unheated and pre-heated βH crystallin, a natural protein constitute of lens cells, were measured as absorbances at λ=450 nm at 23° C. […]

Row | Sequence | absorbance at 450 nm, interaction with γD crystallin (human γD crystallin) | Hydrophobicity [1] | binding of beta amyloid in the protein pin assay (beta amyloid) | absorbance at 450 nm, interaction with ADH [2] | absorbance at 450 nm, interaction with CS [3] | absorbance at 450 nm, interaction with βH crystallin (bovine βH crystallin)
1 | DQFFGEHL [Peptide 13] | maximum absorbances | 0.47 | positive |  |  | 
2 | EFHRKYRI [Peptide 59] | maximum absorbances | 0.13 |  |  |  | 
3 | FFGEHLLE [Peptide 14] |  | 0.73 |  | Maximum absorbances |  | 
4 | FISREFHR [Peptide 57] |  | 0.35 | positive |  | absorbance maxima | Maximum absorbances
5 | FPFHSPSR [Peptide 8] |  | 0.51 | positive |  | absorbance maxima | 
6 | FYLRPPSF [Peptide 24] | maximum absorbances | 0.83 | positive |  | absorbance maxima | Maximum absorbances
7 | GVLTVNGP [Peptide 71] | maximum absorbances | 0.57 | positive | Maximum absorbances |  | Maximum absorbances
8 | HGFISREF [Peptide 56] | maximum absorbances | 0.48 | positive |  |  | 
9 | IAIHHPWI [Peptide 2] | maximum absorbances | 1.12 |  |  |  | 
10 | LFPTSTSL [Peptide 19] |  | 0.79 | positive | Maximum absorbances |  | 
11 | LRAPSWFD [Peptide 28] |  | 0.62 |  |  | absorbance maxima | 
12 | LRPPSFLR [Peptide 25] |  | 0.57 |  | Maximum absorbances |  | 
13 | LTVNGPRK [Peptide 72] |  | 0.16 | positive |  | absorbance maxima | 
14 | PFFPFHSP [Peptide 7] | maximum absorbances | 0.95 | positive | Maximum absorbances |  | 
15 | RLEKDRFS [Peptide 35] |  | −0.12 | positive | Maximum absorbances |  | Maximum absorbances
16 | RTIPITRE [Peptide 79] |  | 0.27 | positive | Maximum absorbances | absorbance maxima | Maximum absorbances
17 | SFLRAPSW [Peptide 27] | maximum absorbances | 0.71 | positive |  |  | 
18 | SREFHRKY [Peptide 58] |  | −0.1 |  | Maximum absorbances |  | 
